Measured values published in patent US20160199445A1, “USE OF ARPIN A NEW INHIBITOR OF THE ARP2/3 COMPLEX FOR THE DIAGNOSIS AND TREATMENT OF DISEASES” (CENTRE NATIONAL DE LA RECHERCHE SCIENTIFIQUE, priority 2013, published 2016).

Assays:
Purified Arp2/3 complex [1] = assay: fluorescence anisotropy; labelled ArpinA peptide bound to purified Arp2/3 titrated with purified Arpin FL
Purified Arp2/3 complex [2] = assay: fluorescence anisotropy, competition with labelled ArpinA bound to purified Arp2/3 complex

Kd (Purified Arp2/3 complex [1]): 200 nM
IC50 (read off the curve) (Purified Arp2/3 complex [2]): 300 nM
Kd (Purified Arp2/3 complex [2]): 205 nM
Substance: Human full length Arpin (residues 1-226), purified from E. coli, cleaved off GST by TEV protease (from UniProt Q7Z6K5 1-226)
